The record followed here is PMC8244417.

Experiment [1] deals with TmZIP C-terminally fused to TEV-GFP-His10. Description: SDS-PAGE of the IMAC-pure protein.
Experiment [2] concerns the target TmZIP N-terminally fused to His10-GFP-TEV. As to the kind of experiment: SDS-PAGE of the IMAC-pure protein.

Usually stoichiometry N stands for the number of molecules, sites or subunits per partner or assembly.

Turning to “TmZIP C-terminally fused to TEV-GFP-His10 (natural protein)”, the stoichiometry N in experiment [1] turned out to be 2.

For the substance “TmZIP N-terminally fused to His10-GFP-TEV (natural protein)”, the stoichiometry N in experiment [2] amounted to 2.
